Laboratory results: the supplement of paper PMC9170038

Tested on: MS2 coat protein
Assay: apparent KD of MS2 coat protein; designed switch direction (-1 OFF switch, 1 ON switch): -1; higher = weaker reporter binding
Method in brief: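 Designed RNA switches with common flanks were made on Illumina chips by stalled E. coli RNA polymerase. Titration with SNAP-549-labelled MS2 coat protein doubled from 0.7 or 1.5 nM up to 3 µM. Apparent KD is each design's median over clusters after curve-fitting normalised fluorescence.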

[1] = Eterna round: R95, input ligand: microRNA oligo, concentration not stated
[2] = Eterna round: R95, input ligand: FMN 200 uM
[3] = Eterna round: R95, input ligand: none

Sequence: GAUACACAUGAGGAUCACCCAUGUUAGGAUAUUAGCGGGAAAGCUGUCAAAACGCCGAUGAGAAGGAACAGGAG [Excls1-IX] (puzzle: Exclusion 1)
- apparent KD of MS2 coat protein [1]: 0.0319 µM

Sequence: GAUAGAGAGCAGGAUAUCUUAGAUAUGUAAUAUAGAGAAGGGCUCACAUGAGGAUCACCCAUGUGGUCCUAGAU [JL Dibiri mod 14] (puzzle: Exclusion 6)
- apparent KD of MS2 coat protein [2]: 0.094 µM
- apparent KD of MS2 coat protein [1]: 0.0159 µM
- apparent KD of MS2 coat protein [3]: 0.0161 µM

Sequence: GAUCAACAUGAGGAUCACCCAUGUGAGGAUAUGAUACUAUGUACUUCGGUACAUAGUAUCAGAAGGCAUGUGAA [Ex1-3: 77] (puzzle: Exclusion 1)
- apparent KD of MS2 coat protein [1]: 0.0801 µM

Sequence: GAUCAACAUGAGGAUCACCCAUGUGAGGAUAUGUAUCAUAGAUCUUCGGAUCUAUGAUACAGAAGGCAUGUGGA [Ex1-3: 100c] (puzzle: Exclusion 1)
- apparent KD of MS2 coat protein [1]: 0.144 µM

Sequence: GAUCACUGAGGAUAUACACAGAUACAAAGUAUCUGACGGUGACAUGAGGAUCACCCAUGUAGAAGGCAGAGGUC [Omei Ex2 B2] (Eterna round: R97, puzzle: Exclusion 2)
- apparent KD of MS2 coat protein (input ligand: FMN 200 uM): 0.36 µM
- apparent KD of MS2 coat protein (input ligand: none): 0.696 µM

Sequence: GAUCAGUAAGGAUAUACAUGAGGAUCACCCAUGUGGAUGGCCGCGCAUUUCCAUUCAGGUAGAAGGUACUGAGU [Eternabot (L1) Solution 94] (Eterna round: R97, puzzle: Exclusion 3)
- apparent KD of MS2 coat protein (input ligand: FMN 200 uM): 0.0543 µM
- apparent KD of MS2 coat protein (input ligand: none): 0.0368 µM

Sequence: GAUCGCCGUGUCAGGAUAUCUUGUGUACCCACGUUAGAGAAGGGACAUGAGGAUCACCCAUGUACCCUGGUUCU [Brourd's mod of Exclusion 4 (MOD3 of Nando's BmEX4 C.21)] (Eterna round: R97, puzzle: Brourd's mod of Exclusion 4)
- apparent KD of MS2 coat protein (input ligand: FMN 200 uM): 0.0187 µM
- apparent KD of MS2 coat protein (input ligand: none): 0.0178 µM

Sequence: GAUCUGACAGGAUAUACAUGAGGAUCACCCAUGUACGAGCUAGCGAAAGCUAGCUCAGGUAGAAGGGUCAGAUC [Ex3 dot plot directed v5] (puzzle: Exclusion 3)
- apparent KD of MS2 coat protein [1]: 0.0116 µM

Sequence: GAUGAGGGAGUGAGGAUAUAUACCGGCUCACCGGAGUAGAAGGCACAUGAGGAUCACCCAUGUGACCUUAACCU [Eternabot (L2) Solution 92] (Eterna round: R97, puzzle: Brourd's mod of Exclusion 4)
- apparent KD of MS2 coat protein (input ligand: FMN 200 uM): 0.0153 µM
- apparent KD of MS2 coat protein (input ligand: none): 0.0141 µM

Sequence: GAUGGACAUGAGGAUCACCCAUGUAAGGAUAUUGAUUAUGGUUAUAAAUAAUUAUGGUCAAGAAGGUACUCGUC [-17.8, -14.8 kcal, A 34%] (Eterna round: R97, puzzle: Exclusion 1)
- apparent KD of MS2 coat protein (input ligand: FMN 200 uM): 0.114 µM
- apparent KD of MS2 coat protein (input ligand: none): 0.147 µM

Sequence: GAUUACUGCAAGCUUUGGAACAUGAGGAUCACCCAUGUUCGUCUUAUUGAUCUAGGUACGCUGACGUACCUAGAUCU [JL-sv1-2.30 Brourd mod] (puzzle: Sensor v3, turn-off variant 1)
- apparent KD of MS2 coat protein [2]: 0.0155 µM
- apparent KD of MS2 coat protein [1]: 0.0162 µM
- apparent KD of MS2 coat protein [3]: 0.0136 µM

Sequence: GAUUAGGUAGGAUAUACGUAGUGAGCCAGCGAGAGCUGGUAACAUGAGGAUCACCCAUGUAGAAGGACCAUUAA [Xeorqulaus] (Eterna round: R97, puzzle: Exclusion 2)
- apparent KD of MS2 coat protein (input ligand: FMN 200 uM): 0.145 µM
- apparent KD of MS2 coat protein (input ligand: none): 0.0724 µM

Sequence: GAUUAGUGAGGAUAUGGUAAAGAUAAGAUGAUGAAAGAACUCCAGAAGGCACAUGAGGAUCACCCAUGUAGUAG [Mat - Exclusion 4 - Mod of JL - D21] (puzzle: Exclusion 4)
- apparent KD of MS2 coat protein [2]: 0.0171 µM
- apparent KD of MS2 coat protein [1]: 0.0204 µM
- apparent KD of MS2 coat protein [3]: 0.0201 µM

Sequence: GAUUAUGCAAGCUUUCGGGACAUGAGGAUCACCCAUGUUCGUCUUAUUGAUCUAGGUACGCUGACGUACCUAGAUCU [JL-sv1-2.33 Brourd mod] (puzzle: Sensor v3, turn-off variant 1)
- apparent KD of MS2 coat protein [2]: 0.017 µM
- apparent KD of MS2 coat protein [1]: 0.0652 µM

Sequence: GAUUAUGCGAGCUUUAGGGACAUGAGGAUCACCCAUGUUCGUCUUAUUAAUCUAGGUACGCUGACAUACCUAAAUCU [JMF 98] (puzzle: Sensor v3, turn-off variant 1)
- apparent KD of MS2 coat protein [2]: 0.0216 µM
- apparent KD of MS2 coat protein [1]: 0.03 µM
- apparent KD of MS2 coat protein [3]: 0.0206 µM
